Test results published in patent US20160263235A1 (ANGIOCHEM, published 2016).
Square brackets hold non-standard residues; d marks the D form.

How the values were obtained:
[1] = target: T1, NT receptor NTSR1 (high affinity NTSR1 receptor) on HT29 cells (human (HT29 is stated to be a human …, UniProt P30989 1-418)); assay: competitive displacement of [3H]-NT from HT29 cells expressing NTSR1
T1 construct: whole, on cells; Endogenous receptor on HT29 cells

[2] = target: T1, NT receptor NTSR1 (high affinity NTSR1 …); assay: as above; remark: listed apart in the source

T1 sequence (P30989 whole entry): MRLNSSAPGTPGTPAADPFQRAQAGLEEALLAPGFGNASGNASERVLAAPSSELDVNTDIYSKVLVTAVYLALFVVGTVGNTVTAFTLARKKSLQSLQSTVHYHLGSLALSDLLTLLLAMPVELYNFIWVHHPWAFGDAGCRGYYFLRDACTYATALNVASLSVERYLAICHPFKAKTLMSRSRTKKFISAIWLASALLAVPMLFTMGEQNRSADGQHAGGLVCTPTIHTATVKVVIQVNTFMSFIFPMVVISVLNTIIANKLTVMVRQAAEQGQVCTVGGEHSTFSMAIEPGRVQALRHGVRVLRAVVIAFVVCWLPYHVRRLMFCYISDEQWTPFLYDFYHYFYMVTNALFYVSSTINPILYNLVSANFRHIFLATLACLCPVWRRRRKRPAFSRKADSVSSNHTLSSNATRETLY

- fold weaker binding than native NT [1]: > 1000 fold
- IC50 [2]: 5.39 µM
B1: Ac-Lys-[D-Tyr^11]NT(8-13) (peptide)
peptide: Ac-KRRP[dY]IL-OH
SMILES: CC[C@H](C)[C@H](NC(=O)[C@@H](Cc1ccc(O)cc1)NC(=O)[C@@H]1CCCN1C(=O)[C@H](CCCNC(=N)N)NC(=O)[C@H](CCCNC(=N)N)NC(=O)[C@H](CCCCN)NC(C)=O)C(=O)N[C@@H](CC(C)C)C(=O)O
notes: also called AcLysNT(8-13)D-tyr11; AcLysNT(8-13)(D-Tyr11)
